Source: the supplement of paper PMC9112550, “Optimization of the antimicrobial peptide Bac7 by deep mutational scanning” (BMC Biology, 2022)

Tested on: Escherichia coli TOP10
Test: shrunken log2 fold change of peptide-encoding DNA abundance (4.5 h post-induction vs induction); higher = less antimicrobial activity (less host growth inhibition)
Conditions: time post-induction: 4.5 h; library: site-saturation at positions 5, 18, 19, 20
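Note: peptides expressed intracellularly from a pBAD plasmid library in pooled LB shake-flask culture, induced with 0.3% L-arabinose, DNA abundance read by NGS, three biological replicates, DESeq2 with apeglm shrinkage.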

Sequence	shrunken log2 fold change
RRIRQRPPRLPRPRPRPTWMPRP	-0.262
RRIRQRPPRLPRPRPRPTYMPRP	-0.106
RRIRQRPPRLPRPRPRPVAPPRP	0.357
RRIRQRPPRLPRPRPRPVDTPRP	-0.183
RRIRQRPPRLPRPRPRPVDVPRP	-0.208
RRIRQRPPRLPRPRPRPVEFPRP	0.0188
RRIRQRPPRLPRPRPRPVEIPRP	-0.0298
RRIRQRPPRLPRPRPRPVEKPRP	0.0119
RRIRQRPPRLPRPRPRPVFDPRP	-0.446
RRIRQRPPRLPRPRPRPVGGPRP	2.52
RRIRQRPPRLPRPRPRPVGIPRP	-0.0511
RRIRQRPPRLPRPRPRPVHSPRP	-0.0049
RRIRQRPPRLPRPRPRPVIKPRP	-0.772
RRIRQRPPRLPRPRPRPVIQPRP	-0.065
RRIRQRPPRLPRPRPRPVIRPRP	-0.406
RRIRQRPPRLPRPRPRPVIVPRP	-0.0674
RRIRQRPPRLPRPRPRPVKGPRP	-0.0475
RRIRQRPPRLPRPRPRPVLPPRP	0.0127
RRIRQRPPRLPRPRPRPVNVPRP	0.0398
RRIRQRPPRLPRPRPRPVPEPRP	0.203
RRIRQRPPRLPRPRPRPVPGPRP	-0.141
RRIRQRPPRLPRPRPRPVPHPRP	-0.0417
RRIRQRPPRLPRPRPRPVRCPRP	0.841
RRIRQRPPRLPRPRPRPVRGPRP	1.97
RRIRQRPPRLPRPRPRPVSHPRP	-0.0425

Sequence	shrunken log2 fold change
RRIRQRPPRLPRPRPRPVTSPRP	-0.0277
RRIRQRPPRLPRPRPRPVVEPRP	0.0249
RRIRQRPPRLPRPRPRPVVPPRP	-0.0392
RRIRQRPPRLPRPRPRPVWEPRP	0.0571
RRIRQRPPRLPRPRPRPVWMPRP	-0.00887
RRIRQRPPRLPRPRPRPVYLPRP	-0.206
RRIRQRPPRLPRPRPRPVYYPRP	0.0771
RRIRQRPPRLPRPRPRPWAEPRP	-0.0482
RRIRQRPPRLPRPRPRPWAGPRP	0.0868
RRIRQRPPRLPRPRPRPWCPPRP	-0.261
RRIRQRPPRLPRPRPRPWDAPRP	-0.0479
RRIRQRPPRLPRPRPRPWDTPRP	0.14
RRIRQRPPRLPRPRPRPWFNPRP	-0.359
RRIRQRPPRLPRPRPRPWFPPRP	-0.156
RRIRQRPPRLPRPRPRPWGHPRP	-0.0609
RRIRQRPPRLPRPRPRPWGVPRP	0.122
RRIRQRPPRLPRPRPRPWIQPRP	-0.251
RRIRQRPPRLPRPRPRPWLRPRP	-0.112
RRIRQRPPRLPRPRPRPWMHPRP	0.0573
RRIRQRPPRLPRPRPRPWMLPRP	-0.267
RRIRQRPPRLPRPRPRPWMWPRP	-0.457
RRIRQRPPRLPRPRPRPWNIPRP	-0.0185
RRIRQRPPRLPRPRPRPWRQPRP	0.029
RRIRQRPPRLPRPRPRPWRVPRP	-0.049
RRIRQRPPRLPRPRPRPWSFPRP	-0.026

Sequence	shrunken log2 fold change
RRIRQRPPRLPRPRPRPWSNPRP	-0.00145
RRIRQRPPRLPRPRPRPWSYPRP	-0.106
RRIRQRPPRLPRPRPRPWTLPRP	-0.158
RRIRQRPPRLPRPRPRPWWGPRP	0.0786
RRIRQRPPRLPRPRPRPWWHPRP	0.00797
RRIRQRPPRLPRPRPRPWWKPRP	-0.00542
RRIRQRPPRLPRPRPRPWYNPRP	-0.375
RRIRQRPPRLPRPRPRPWYQPRP	-0.000894
RRIRQRPPRLPRPRPRPWYWPRP	-0.468
RRIRQRPPRLPRPRPRPYCKPRP	-0.257
RRIRQRPPRLPRPRPRPYCSPRP	-0.132
RRIRQRPPRLPRPRPRPYENPRP	0.00377
RRIRQRPPRLPRPRPRPYFPPRP	-0.283
RRIRQRPPRLPRPRPRPYGGPRP	-0.29
RRIRQRPPRLPRPRPRPYGHPRP	-0.473
RRIRQRPPRLPRPRPRPYGPPRP	-0.415
RRIRQRPPRLPRPRPRPYGWPRP	-0.112
RRIRQRPPRLPRPRPRPYHDPRP	0.015
RRIRQRPPRLPRPRPRPYIAPRP	0.0259
RRIRQRPPRLPRPRPRPYIDPRP	-0.606
RRIRQRPPRLPRPRPRPYIKPRP	-1.38
RRIRQRPPRLPRPRPRPYKVPRP	0.000796
RRIRQRPPRLPRPRPRPYNPPRP	-0.529
RRIRQRPPRLPRPRPRPYRKPRP	-0.0156
RRIRQRPPRLPRPRPRPYSVPRP	-0.00968

Sequence	shrunken log2 fold change
RRIRQRPPRLPRPRPRPYSYPRP	-0.337
RRIRQRPPRLPRPRPRPYTLPRP	0.0232
RRIRQRPPRLPRPRPRPYWAPRP	-0.355
RRIRQRPPRLPRPRPRPYWHPRP	-0.317
RRIRQRPPRLPRPRPRPYWMPRP	0.0425
RRIRQRPPRLPRPRPRPYYCPRP	-0.332
RRIRQRPPRLPRPRPRPYYMPRP	-0.614
RRIRRRPPRLPRPRPRPACNPRP	0.654
RRIRRRPPRLPRPRPRPACSPRP	0.377
RRIRRRPPRLPRPRPRPADCPRP	0.0869
RRIRRRPPRLPRPRPRPADWPRP	0.652
RRIRRRPPRLPRPRPRPAEIPRP	1.1
RRIRRRPPRLPRPRPRPAFCPRP	0.404
RRIRRRPPRLPRPRPRPAFEPRP	0.54
RRIRRRPPRLPRPRPRPAHGPRP	0.279
RRIRRRPPRLPRPRPRPAKSPRP	0.242
RRIRRRPPRLPRPRPRPALCPRP	0.334
RRIRRRPPRLPRPRPRPAMTPRP	0.314
RRIRRRPPRLPRPRPRPANDPRP	0.275
RRIRRRPPRLPRPRPRPAQIPRP	0.494
RRIRRRPPRLPRPRPRPARYPRP	0.317
RRIRRRPPRLPRPRPRPASKPRP	0.276
RRIRRRPPRLPRPRPRPATTPRP	0.092
RRIRRRPPRLPRPRPRPAVGPRP	0.344
RRIRRRPPRLPRPRPRPAVPPRP	0.146

Sequence	shrunken log2 fold change
RRIRRRPPRLPRPRPRPAWHPRP	0.527
RRIRRRPPRLPRPRPRPAYIPRP	-0.201
RRIRRRPPRLPRPRPRPCAFPRP	0.123
RRIRRRPPRLPRPRPRPCCKPRP	-0.0824
RRIRRRPPRLPRPRPRPCEIPRP	0.0684
RRIRRRPPRLPRPRPRPCFEPRP	0.0864
RRIRRRPPRLPRPRPRPCFGPRP	0.0921
RRIRRRPPRLPRPRPRPCFNPRP	-0.271
RRIRRRPPRLPRPRPRPCGCPRP	0.0953
RRIRRRPPRLPRPRPRPCGFPRP	0.265
RRIRRRPPRLPRPRPRPCGPPRP	0.517
RRIRRRPPRLPRPRPRPCHHPRP	-0.0387
RRIRRRPPRLPRPRPRPCHTPRP	-0.24
RRIRRRPPRLPRPRPRPCIVPRP	-0.183
RRIRRRPPRLPRPRPRPCKAPRP	0.122
RRIRRRPPRLPRPRPRPCKKPRP	0.0185
RRIRRRPPRLPRPRPRPCLWPRP	0.407
RRIRRRPPRLPRPRPRPCNWPRP	-0.0134
RRIRRRPPRLPRPRPRPCPEPRP	0.0178
RRIRRRPPRLPRPRPRPCPLPRP	0.262
RRIRRRPPRLPRPRPRPCPRPRP	0.0796
RRIRRRPPRLPRPRPRPCPTPRP	0.288
RRIRRRPPRLPRPRPRPCQCPRP	0.0262
RRIRRRPPRLPRPRPRPCQGPRP	-0.129
RRIRRRPPRLPRPRPRPCSPPRP	-0.125

Sequence	shrunken log2 fold change
RRIRRRPPRLPRPRPRPCVFPRP	0.022
RRIRRRPPRLPRPRPRPCVIPRP	-0.0371
RRIRRRPPRLPRPRPRPCVYPRP	-0.42
RRIRRRPPRLPRPRPRPCWYPRP	-0.112
RRIRRRPPRLPRPRPRPDASPRP	0.0354
RRIRRRPPRLPRPRPRPDCPPRP	0.4
RRIRRRPPRLPRPRPRPDEIPRP	0.116
RRIRRRPPRLPRPRPRPDEPPRP	-0.0328
RRIRRRPPRLPRPRPRPDHGPRP	-0.146
RRIRRRPPRLPRPRPRPDHSPRP	0.0322
RRIRRRPPRLPRPRPRPDIIPRP	-0.135
RRIRRRPPRLPRPRPRPDITPRP	0.303
RRIRRRPPRLPRPRPRPDKTPRP	0.119
RRIRRRPPRLPRPRPRPDLGPRP	0.104
RRIRRRPPRLPRPRPRPDNTPRP	0.876
RRIRRRPPRLPRPRPRPDPEPRP	0.307
RRIRRRPPRLPRPRPRPDSKPRP	-0.0649
RRIRRRPPRLPRPRPRPDTCPRP	0.133
RRIRRRPPRLPRPRPRPDTIPRP	-0.15
RRIRRRPPRLPRPRPRPDTLPRP	0.06
RRIRRRPPRLPRPRPRPDTPPRP	0.342
RRIRRRPPRLPRPRPRPDVGPRP	-0.042
RRIRRRPPRLPRPRPRPDVWPRP	0.611
RRIRRRPPRLPRPRPRPECAPRP	0.426
RRIRRRPPRLPRPRPRPECMPRP	0.921
